From patent US20250136680A1 (SHANGHAI QILU PHARMACEUTICAL RESEARCH AND DEVELOPMENT CENTRE, published 2025)

Key:
[1] = target: T1, human DLL3 (hDLL3) expressed on tumor cells (human, UniProt Q9NYJ7 27-618); test: cell-based or functional assay
T1 sequence (looked up): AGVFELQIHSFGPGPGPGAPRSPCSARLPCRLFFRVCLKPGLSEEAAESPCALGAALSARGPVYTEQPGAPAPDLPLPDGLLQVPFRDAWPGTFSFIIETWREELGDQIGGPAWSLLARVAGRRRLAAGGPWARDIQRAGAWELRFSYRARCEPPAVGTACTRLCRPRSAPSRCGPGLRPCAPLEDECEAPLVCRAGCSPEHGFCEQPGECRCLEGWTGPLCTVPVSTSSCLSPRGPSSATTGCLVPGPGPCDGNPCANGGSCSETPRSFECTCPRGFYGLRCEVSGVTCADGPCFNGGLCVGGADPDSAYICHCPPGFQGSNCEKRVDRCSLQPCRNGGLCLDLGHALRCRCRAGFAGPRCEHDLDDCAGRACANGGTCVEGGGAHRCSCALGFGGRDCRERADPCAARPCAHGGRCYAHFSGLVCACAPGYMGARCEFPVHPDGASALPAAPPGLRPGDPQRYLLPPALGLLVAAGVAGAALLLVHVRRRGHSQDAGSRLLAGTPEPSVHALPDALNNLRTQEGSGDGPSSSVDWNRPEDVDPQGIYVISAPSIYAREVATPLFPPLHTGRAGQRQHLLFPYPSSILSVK

[2] = target: T1, human DLL3 (hDLL3) expressed on tumor …; test: flow cytometry (FACS) on SHP-77 cells expressing hDLL3
[3] = target: T2, human CD3 (hCD3) naturally expressed on Jurkat cells (human, UniProt P07766 23-207); test: flow cytometry (FACS) on Jurkat cells naturally expressing hCD3
T2 construct: whole, on cells; on the cells it is part of the whole TCR/CD3 complex; also called Jurkat cell line
T2 sequence (P07766 23-207): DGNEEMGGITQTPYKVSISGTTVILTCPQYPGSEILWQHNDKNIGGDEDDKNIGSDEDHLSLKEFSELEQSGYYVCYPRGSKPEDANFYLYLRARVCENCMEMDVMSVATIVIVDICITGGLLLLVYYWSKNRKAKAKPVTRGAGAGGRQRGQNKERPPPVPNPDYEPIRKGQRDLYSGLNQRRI

[4] = target: human CD3 (purchased from Acro, Cat. No. CDD-H52W1) (human, UniProt P07766 23-126); test: SPR (Biacore 8K), CD3 immobilised directly on CM5, bispecific as analyte, 1:1 Langmuir fit
human CD3 (purchased from Acro, Cat. No. CDD-H52W1), sequence (P07766 23-126): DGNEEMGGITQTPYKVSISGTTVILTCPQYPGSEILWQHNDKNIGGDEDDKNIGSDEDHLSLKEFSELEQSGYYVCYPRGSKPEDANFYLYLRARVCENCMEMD

[5] = target: T3, cynomolgus CD3 (purchased from Acro, Cat. No. CDD-C52W4) (cynomolgus, UniProt Q95LI5 22-117); test: as above
T3 sequence (looked up): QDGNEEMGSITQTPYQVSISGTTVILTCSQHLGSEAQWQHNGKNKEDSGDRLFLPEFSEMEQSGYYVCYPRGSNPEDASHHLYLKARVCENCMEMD

[6] = target: T4, human DLL3 (purchased from Kaixia, Cat. No DLL-HM103) (human, UniProt Q9NYJ7 27-492, limits assumed); test: SPR (Biacore 8K), bispecific captured by anti-human Fc on CM5, DLL3 as analyte, 1:1 Langmuir fit
T4 construct: Bought recombinant protein; also called human DLL3 protein
T4 sequence (looked up): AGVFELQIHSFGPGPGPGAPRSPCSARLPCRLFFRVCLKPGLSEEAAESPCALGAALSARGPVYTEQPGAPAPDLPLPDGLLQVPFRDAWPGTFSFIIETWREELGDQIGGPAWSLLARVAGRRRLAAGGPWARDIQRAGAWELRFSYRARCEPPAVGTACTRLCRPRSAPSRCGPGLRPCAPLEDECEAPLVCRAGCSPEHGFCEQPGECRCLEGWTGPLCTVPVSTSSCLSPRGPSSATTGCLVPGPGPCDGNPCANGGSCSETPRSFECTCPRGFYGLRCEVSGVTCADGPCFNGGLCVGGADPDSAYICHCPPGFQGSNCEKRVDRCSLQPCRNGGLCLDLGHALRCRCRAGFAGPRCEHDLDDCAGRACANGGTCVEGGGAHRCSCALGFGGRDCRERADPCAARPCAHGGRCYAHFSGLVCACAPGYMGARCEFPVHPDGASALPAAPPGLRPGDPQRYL

[7] = target: T5, cynomolgus DLL3 (purchased from Kaixia, Cat. No. DLL-RM103) (cynomolgus, UniProt A0A2K5WSR1 27-490); test: as above
T5 construct: Bought recombinant protein
T5 sequence: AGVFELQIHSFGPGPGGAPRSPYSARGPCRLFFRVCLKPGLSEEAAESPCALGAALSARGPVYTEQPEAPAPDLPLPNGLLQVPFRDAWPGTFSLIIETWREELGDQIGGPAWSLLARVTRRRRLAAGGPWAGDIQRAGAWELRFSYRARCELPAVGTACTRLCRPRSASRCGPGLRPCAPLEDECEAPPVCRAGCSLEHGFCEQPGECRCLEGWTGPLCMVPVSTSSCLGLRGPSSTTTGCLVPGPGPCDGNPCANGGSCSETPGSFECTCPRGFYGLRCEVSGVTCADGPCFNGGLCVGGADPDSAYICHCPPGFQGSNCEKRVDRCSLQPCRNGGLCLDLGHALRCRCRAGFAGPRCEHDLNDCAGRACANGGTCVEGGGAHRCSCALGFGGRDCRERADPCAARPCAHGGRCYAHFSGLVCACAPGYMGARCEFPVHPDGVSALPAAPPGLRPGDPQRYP

B1: Bispecific antibody 2 (bispecific antibody, IgG1)
heavy: not shown
chain: DKTHTCPPCPAPEAAGGPSVFLFPPKPKDTLMISRTPEVTCVVVDVSHEDPEVKFNWYVDGVEVHNAKTKPREEQYNSTYRVVSVLTVLHQDWLNGKEYKCKVSNKALPAPIEKTISKAKGQPREPQVCTLPPSRDELTKNQVSLSCAVKGFYPSDIAVEWESNGQPENNYKTTPPVLDSDGSFFLVSKLTVDKSRWQQGNVFSCSVMHEALHNRYTQKSLSLSPGK
light: EIVLTQSPATLSLSPGERATLSCRASQSINNNLHWYQQKPGQAPRLLIKYVSQSISGIPARFSGSGSGTDFTLTISSLEPEDFAVYYCQQTNAWPLTFGGGTKLEIKRTVAAPSVFIFPPSDEQLKSGTASVVCLLNNFYPREAKVQWKVDNALQSGNSQESVTEQDSKDSTYSLSSTLTLSKADYEKHKVYACEVTHQGLSSPVTKSFNRGEC
notes: Knob heavy chain: DLL3 VH-CH1-(G4S)3-CD3 scFv-EPKSS-IgG1 Fc (S354C, T366W, L234A/L235A); Hole chain: Fc only (Y349C, T366S, L368A, Y407V, H435R); Light chain: that of H2-39E2D11-NA; also called anti-CD3-DLL3 bispecific antibody
TDCC EC50 (nM), NCI-H82 cell line [1]: 80.2 nM | TDCC EC50 (nM), SHP-77 cell line [1]: 136 nM | EC50 [2]: 3.11 nM | EC50 [3]: 57.9 nM | Kd [4]: 9.09 nM | koff [4]: 0.00414 s⁻¹ | Kd [5]: 11.1 nM | koff [5]: 0.00405 s⁻¹ | Kd [6]: 0.647 nM | koff [6]: 7.92e-05 s⁻¹ | kon [6]: 122000 M⁻¹ s⁻¹ | Kd [7]: 0.887 nM | koff [7]: 8.6e-05 s⁻¹ | kon [7]: 97000 M⁻¹ s⁻¹
